{"source": "paper PMC7145599", "about": "“Cooperative DNA binding by proteins through DNA shape complementarity” (Nucleic Acids Research, 2019)", "molecules": {"B1": {"name": "Escherichia coli Fis protein (natural protein)", "chain": "MFEQRVNSDVLTVSTVNSQDQVTQKPLRDSVKQALKNYFAQLNGQDVNDLYELVLAEVEQPLLDMVMQYTRGNQTRAALMMGINRGTLRKKLKKYGMN", "notes": "Fis, bacterial nucleoid / DNA architectural protein of Escherichia coli; the N-terminal beta-hairpin arms are not resolved in the crystals; also called Fis dimer"}, "B2": {"name": "Xis^1-55 (phage lambda Xis residues 1-55 with a cysteine to serine substitution at residue 28) (domain or fragment, UniProt P03699 1-55, looked up)", "chain": "MYLTLQEWNARQRRPRSLETVRRWVRESRIFPPPVKDGREYLFHESAVKVDLNRP", "notes": "Used for crystallography; The full-length Cys28Ser xis gene (pRJ2178, pET11a) was used for the gel shift assays on DNA, which are not written here; also called Xis protomer; Xis monomer"}, "B3": {"name": "FX2 27 bp (dsDNA)", "DNA 1": "AATTTTGCATAAAAAACAGACTACATT", "DNA 2": "AATGTAGTCTGTTTTTTATGCAAAATT"}, "B4": {"name": "FX1-2 27 bp (dsDNA)", "DNA 1": "AATGTTGTGTTTTTAACAGACTACATT", "DNA 2": "AATGTAGTCTGTTAAAAACACAACATT"}, "B5": {"name": "FX1-2 27 bp 5-BrdU (dsDNA)", "DNA 1": "AATGTTGTGTTTTTAACAGACTACATT", "DNA 2": "AATGTAGTCTGTTAAAAACACAACATT", "modifications": "5-bromodeoxyuridine at asterisked T positions (incl. nt 8 and 12 from the central T)"}}, "key": {"[1]": {"molecular_target": "Fis;Xis-wt (phage lambda) (UniProt P0A6R3)", "assay": "EMSA", "conditions": "apparent Kd of Xis for Fis-bound DNA; 4 nM Fis; EMSA: 20 mM HEPES pH 7.5, 0.1 M NaCl, 5% glycerol, 500 ug/ml BSA, 1 mM EDTA, 1 mM DTT, 25 C; competitor 50 ug/ml poly dI/dC (34 bp), 5 ug/ml poly dI/dC (Fig 2) …"}, "[2]": {"tested_on": "Xis-Arg39Ala (phage lambda)", "assay": "EMSA", "conditions": "no Fis; cooperative; EMSA: 20 mM HEPES pH 7.5, 0.1 M NaCl, 5% glycerol, 500 ug/ml BSA, 1 mM EDTA, 1 mM DTT, 25 C; competitor 50 ug/ml poly dI/dC (34 bp), 5 ug/ml poly dI/dC (Fig 2) …"}, "[3]": {"tested_on": "Xis-Arg39Lys (phage lambda)", "assay": "EMSA", "conditions": "no Fis; stepwise, non-cooperative; EMSA: 20 mM HEPES pH 7.5, 0.1 M NaCl, 5% glycerol, 500 ug/ml BSA, 1 mM EDTA, 1 mM DTT, 25 C; competitor 50 ug/ml poly dI/dC (34 bp), 5 ug/ml poly dI/dC (Fig 2) …"}, "[4]": {"molecular_target": "the molecule itself", "assay": "crystal structure; Fis dimer and Xis^1-55 co-bound to 27 bp DNA duplexes (FX2, FX1-2-1Xis, FX1-2-2Xis); complexes formed in 20 mM Tris-HCl pH 7.5, 200 mM Na acetate; crystals grown at 4°C in 0.1 M HEPES pH 7-7.5, 15% PEG4000"}, "Fis;Xis1-55 [5]": {"molecular_target": "T1, Fis;Xis1-55 (Escherichia coli?;phage lambda, UniProt P0A6R3;P03699 1-98;1-55, |C28S)", "assay": "X-ray crystallography; FX2, 2.7 A; EMSA: 20 mM HEPES pH 7.5, 0.1 M NaCl, 5% glycerol, 500 ug/ml BSA, 1 mM EDTA, 1 mM DTT, 25 C; competitor 50 ug/ml poly dI/dC (34 bp), 5 ug/ml poly dI/dC (Fig 2)", "conditions": "protein: recombinant;recombinant; tags: ;; chain copies: 2;1"}, "[6]": {"molecular_target": "Fis;Xis1-55 (two protomers) (Escherichia coli?;phage lambda, UniProt P0A6R3;P03699 1-98;1-55, |C28S)", "assay": "X-ray crystallography; FX1-2-2Xis, 3.30 A; second Xis over X1 in reverse orientation; EMSA: 20 mM HEPES pH 7.5, 0.1 M NaCl, 5% glycerol, 500 ug/ml BSA, 1 mM EDTA, 1 mM DTT, 25 C; competitor 50 ug/ml poly dI/dC (34 bp), 5 ug/ml poly dI/dC (Fig 2)", "conditions": "protein: recombinant;recombinant; tags: ;; chain copies: 2;2"}, "Fis;Xis1-55 [7]": {"molecular_target": "T1, Fis;Xis1-55", "assay": "X-ray crystallography; FX1-2-1Xis, 3.60 A; Xis at X2; EMSA: 20 mM HEPES pH 7.5, 0.1 M NaCl, 5% glycerol, 500 ug/ml BSA, 1 mM EDTA, 1 mM DTT, 25 C; competitor 50 ug/ml poly dI/dC (34 bp), 5 ug/ml poly dI/dC (Fig 2)", "conditions": "protein: recombinant;recombinant; tags: ;; chain copies: 2;1"}, "Fis;Xis1-55 [8]": {"molecular_target": "T1, Fis;Xis1-55", "assay": "X-ray crystallography (Br anomalous); EMSA: 20 mM HEPES pH 7.5, 0.1 M NaCl, 5% glycerol, 500 ug/ml BSA, 1 mM EDTA, 1 mM DTT, 25 C; competitor 50 ug/ml poly dI/dC (34 bp), 5 ug/ml poly dI/dC (Fig 2)", "conditions": "protein: recombinant;recombinant; tags: ;; chain copies: 2;1"}}}
{"molecule": "F-X2 34 bp (CA, native)", "values": [{"measurement": "Kd", "setting": "[1]", "value": 400, "unit": "nM"}]}
{"molecule": "attR 263 bp", "values": [{"measurement": "binding signal (fold lower affinity than Xis-wt)", "setting": "[2]", "value": 15}, {"measurement": "binding signal (fold lower affinity than Xis-wt)", "setting": "[3]", "value": 10}]}
{"molecule": "B1", "values": [{"measurement": "stoichiometry N", "setting": "[4]", "value": 2}]}
{"molecule": "B2", "values": [{"measurement": "binding result", "setting": "[4]", "value": "binds"}]}
{"molecule": "B3", "values": [{"measurement": "binding result", "setting": "Fis;Xis1-55 [5]", "value": "binds"}]}
{"molecule": "B4", "values": [{"measurement": "binding result", "setting": "[6]", "value": "binds"}, {"measurement": "binding result", "setting": "Fis;Xis1-55 [7]", "value": "binds"}]}
{"molecule": "B5", "values": [{"measurement": "binding result", "setting": "Fis;Xis1-55 [8]", "value": "binds"}]}
